Here are results for 4 molecules from patent US20050249735A1.

The target of test [1] is human lymphotoxin (TNFβ) (human) (UniProt P01374). In words: cell-based or functional assay.
Test [2] has as its target human tumor necrosis factor-alpha (TNFα) (human) (UniProt P01375). The experiment in a line: cell-based or functional assay.

human lymphotoxin (TNFβ) (human), sequence (P01374 35-205 limits assumed): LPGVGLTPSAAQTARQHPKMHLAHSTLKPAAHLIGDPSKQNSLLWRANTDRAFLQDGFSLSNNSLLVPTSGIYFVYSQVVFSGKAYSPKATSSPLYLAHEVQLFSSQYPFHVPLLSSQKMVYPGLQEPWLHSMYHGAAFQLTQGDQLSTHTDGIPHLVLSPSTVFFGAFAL
human tumor necrosis factor-alpha (TNFα) (human), sequence (P01375 77-233): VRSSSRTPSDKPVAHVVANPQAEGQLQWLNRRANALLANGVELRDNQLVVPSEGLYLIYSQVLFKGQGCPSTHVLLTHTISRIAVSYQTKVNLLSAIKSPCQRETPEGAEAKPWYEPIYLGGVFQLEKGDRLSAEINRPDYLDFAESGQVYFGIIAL

“p55-sf2 (p55 TNF receptor / IgG1 heavy chain single fusion with truncated light chain JCK) (from UniProt P01857 1-330) (Fc fusion)”: the amount needed for the same degree of inhibition of TNFβ cytotoxicity, against p75P-sf2 in test [1] amounted to 3 fold.

“p75-sf2 (complete extracellular domain of p75 fused to the heavy chain) (from UniProt P20333 23-257; P01857 1-330) (Fc fusion)” had an amount needed for the same degree of inhibition of TNFβ cytotoxicity, against p75P-sf2 in test [1] of 3 fold. Turning to “p75P-sf2 (p75 heavy chain fusion lacking the C-terminal 53 amino acids of the p75 extracellular domain) (from UniProt P20333 23-204; P01857 1-330) (Fc fusion)”, the concentration to half-inhibit human TNFβ at 2 pM, WEHI 164 cytotoxicity in test [1] stood at 31 pM.

B1: chimeric mouse/human IgG1 anti-platelet mAb (7E3) (antibody, INN chains, looked up, V domains shown)
VH: EVQLQQSGTVLARPGASVKMSCEASGYTFTNYWMHWVKQRPGQGLEWIGAIYPGNSDTSYIQKFKGKAKLTAVTSTTSVYMELSSLTNEDSAVYYCTLYDGYYVFAYWGQGTLVTVSA
VL: EIVLTQSPVTLSVTPGDSVSLSCRASRDISNNLHWFQQTSHESPRLLIKYASQSMSGIPSRFSGSGSGTDFTLSINSVETEDFGMYFCQQTNSWPYTFGGGTKLEIK
modifications: full IgG1
Turning to B1, in test [2], the IL-6 in supernatant of FS-4 fibroblasts, rhTNF 0.3 ng/ml, 4 µg/ml antibody amounted to 1.6 ng/mL; the IL-6 in supernatant of FS-4 fibroblasts, rhTNF 1.5 ng/ml, 4 µg/ml antibody amounted to 1.96 ng/mL; the IL-6 in supernatant of FS-4 fibroblasts, rhTNF 7.5 ng/ml, 4 µg/ml antibody turned out to be 2.16 ng/mL.
